{"source": "patent US20250236683A1", "about": "(PHARMA FOODS INTERNATIONAL, published 2025)", "binders": {"B1": {"name": "CK1-10 (antibody, human IgG1, lambda, V domains shown)", "VH": "AVTLDESGGGLQTPGRALSLVCKASGFTFSDYGMGWMRQAPGKGLEWVGAISNRGSHTYYGAAVKGRATISRDNGQSTVRLQLNNLRAEDTGTYYCAKDAGTCISSYGFSCVSAASIDAWGHGTEVIVSS", "VL": "ALTQPSSVSANLGGTVKITCSGGSGSYGGSYYYGWYQQKAPGSAPVTLIYDNTNRPSNIPSRFSGSKSGSTATLTITGVQADDEAVYFCGSIDSISDADIFGAGTTLTVLG", "notes": "Chicken/human chimeric IgG1 expressed in 293 cells; also called anti-PAD2 antibody"}, "B2": {"name": "PK1-16 (antibody, human IgG1, lambda, V domains shown)", "VH": "AVTLDESGGGLQTPGGGLSLVCKASGFTFRSYAMYWVRQAPGKGLEWLAGISSSGRYTGYAPAVKGRATISRDNGQSTVRLQLSNLRAEDAGTYYCAKDVYDSWTYANRIDAWGHGTEVIVSS", "VL": "ALTQPSSVSANPGETVKITCSGGGRRGYYGWYQQKSPGSAPVTVIYNNDERPSNIPSRFSGFKSGSTATLTITGVQAEDEAVYYCGSGDTTTDSGIFGAGTTLTVLG", "notes": "as for B1"}}, "target": "T1, human PAD2 protein (human, UniProt Q9Y2J8 1-665)", "T1 construct": "also called Peptidylarginine deiminase 2; Peptidyl arginine deiminase type-2", "T1 sequence (Q9Y2J8 whole entry)": "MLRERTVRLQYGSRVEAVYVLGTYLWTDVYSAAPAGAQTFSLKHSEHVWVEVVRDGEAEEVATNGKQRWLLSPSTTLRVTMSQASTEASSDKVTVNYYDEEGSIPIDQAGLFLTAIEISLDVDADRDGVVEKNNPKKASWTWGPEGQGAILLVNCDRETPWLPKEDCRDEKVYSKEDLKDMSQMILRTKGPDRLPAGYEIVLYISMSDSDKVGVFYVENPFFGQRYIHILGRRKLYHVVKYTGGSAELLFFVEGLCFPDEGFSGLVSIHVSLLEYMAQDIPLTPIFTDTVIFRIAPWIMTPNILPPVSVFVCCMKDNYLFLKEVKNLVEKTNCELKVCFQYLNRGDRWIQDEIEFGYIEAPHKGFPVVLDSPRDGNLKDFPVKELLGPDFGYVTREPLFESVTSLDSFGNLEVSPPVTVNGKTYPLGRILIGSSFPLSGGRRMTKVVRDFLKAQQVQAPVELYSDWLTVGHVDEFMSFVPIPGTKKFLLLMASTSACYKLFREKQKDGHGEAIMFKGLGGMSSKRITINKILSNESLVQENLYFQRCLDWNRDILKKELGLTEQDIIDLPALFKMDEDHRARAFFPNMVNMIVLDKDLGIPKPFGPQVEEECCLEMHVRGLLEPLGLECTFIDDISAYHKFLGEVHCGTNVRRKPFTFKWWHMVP", "assay": "SPR (Biacore 8K), antibody captured on Protein A chip, human PAD2 as analyte, single-cycle, 1:1 model", "description": "To evaluate the binding affinity of each anti-PAD2 antibody for human PAD2 protein, the dissociation constant (KD) was measured using a surface plasmon resonance system Biacore 8K (Cytiva). Series S Sensor Chip Protein A (Cytiva) was used as the sensor chip. HBS-EP+ buffer was used as the running buffer. The test antibody was prepared at 0.8 μg/mL by using the running buffer to make a ligand solution. The ligand solution was added to the flow cell at a flow rate of 10 μL/min for 60 seconds, and the flow cell without the ligand solution was used as a reference cell. The running buffer was used to prepare human PAD2 protein from several hundred pM to several tens of nM to make each analyte solution. The running buffer was also used as a blank solution. The blank solution or analyte solution was added at a flow rate of 30 μL/min for 120 seconds by using the single-cycle method, and the dissociation time was set to 1200 seconds. The sensorgram of the reference cell was subtracted from the sensorgram of the flow cell with the ligand when the blank solution or analyte solution was added. In addition, the sensorgram when the blank solution was added was subtracted from the sensorgram when the analyte solution was added, and then used for analysis. Biacore™ Insight Evaluation Software (Cytiva) was used to calculate binding parameters while using the 1:1 binding model.", "data": [{"binder": "B1", "values": [{"measurement": "binding result", "value": "binds"}]}, {"binder": "B2", "values": [{"measurement": "binding result", "value": "binds"}]}]}
